This note sets out measurements from US20260028417A1 (SICHUAN KELUN BIOTECH BIOPHARMACEUTICAL, published 2026).

The target of experiment [1] is T1, monkey HER3 protein (extracellular sequence with six histidines at the C-terminal) (monkey).
T1 construct: Made in HEK293 cells; also called Monkey HER3-His
T1 chain: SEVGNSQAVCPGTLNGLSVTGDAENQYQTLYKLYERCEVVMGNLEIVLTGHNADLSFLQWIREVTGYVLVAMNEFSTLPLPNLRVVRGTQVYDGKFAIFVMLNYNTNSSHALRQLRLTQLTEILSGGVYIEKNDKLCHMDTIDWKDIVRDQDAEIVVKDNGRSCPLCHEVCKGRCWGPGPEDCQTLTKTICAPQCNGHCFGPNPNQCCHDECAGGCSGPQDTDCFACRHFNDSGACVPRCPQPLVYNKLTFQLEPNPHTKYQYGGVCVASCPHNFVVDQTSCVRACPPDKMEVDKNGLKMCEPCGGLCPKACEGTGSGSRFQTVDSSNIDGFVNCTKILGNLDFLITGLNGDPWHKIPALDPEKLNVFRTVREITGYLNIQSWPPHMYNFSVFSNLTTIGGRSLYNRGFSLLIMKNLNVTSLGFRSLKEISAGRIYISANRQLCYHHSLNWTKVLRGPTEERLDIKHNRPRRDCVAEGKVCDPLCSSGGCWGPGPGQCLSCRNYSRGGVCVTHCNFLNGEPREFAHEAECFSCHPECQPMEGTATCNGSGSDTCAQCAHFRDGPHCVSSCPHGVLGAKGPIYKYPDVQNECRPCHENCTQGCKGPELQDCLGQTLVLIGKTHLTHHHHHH
Nature of the experiment: BLI (ForteBio), antibody captured on Protein A sensor, monkey HER3-His in solution, 1:1 global fit. As to the method: (§1) The measured results were entered into Data Analysis 11.0 software, by using 1:1 mode, and global fitting; the results were analyzed to obtain the association rate, dissociation rate and affinity constant.
In general terms: In BLI a coated tip is dipped into the sample, and binding shifts an interference pattern.

Experiment [2] concerns the target T2, human HER3 on cells (human, UniProt P21860 20-1342).
T2 construct: whole, on cells; also called T47D; NCI-N87
Nature of the experiment: competition flow cytometry on adherent cells (cell line not named in paragraph 175); competitor: 100H7D3-hIgG-Bio, final 200 ng/ml; PE streptavidin. An excerpt:
Data processing: the Median PE values were exported, and then imported into GraphPad Prism 6 software for nonlinear curve fitting (4-parameter).
A general note: A flow cytometer gives signals particle by particle.

Experiment [3] deals with T3, human HER3 protein (extracellular sequence with six histidines at the C-terminal) (human, UniProt P21860 20-643).
T3 construct: extracellular domain; Made in HEK293 cells; also called Human HER3-His
Nature of the experiment: ELISA, coated human HER3-His. As to the method: (§2) The plate was washed 5 times with PBST (0.2% Tween-20), and dried, then 100 μl of TMB (InnoReagents) chromogenic substrate was added to each well, reacted at room temperature for 3-5 minutes, then 50 μl of 2N H₂SO₄ was added to each well to stop the chromogenic reaction, and the absorbance value at OD450 nm was read with a microplate reader. The raw data were imported into GraphPad Prism 6 software for nonlinear curve fitting, and EC50 values were calculated.
On the technique in general: In an ELISA, binding on a coated surface is turned into a signal by an enzyme label.

The target of experiment [4] is T2, human HER3 on cells. Nature of the experiment: cell-based or functional assay.
Experiment [5] concerns the target T4, rat HER3 protein (rat, UniProt Q62799 20-643).
T4 construct: whole entry named; also called Rat HER3-His; rat protein
Nature of the experiment: ELISA, coated rat HER3-His. As to the method:
as §2

In experiment [6] the target is T3, human HER3 protein (extracellular …). The experiment in a line: BLI (ForteBio), antibody captured on Protein A sensor, human HER3-His in solution, 1:1 global fit. As to the method: as §1
Experiment [7] addresses T2, human HER3 on cells. The experiment in a line: flow cytometry on T47D cells. As to the method:
(§3) Data processing: the Median PE values were exported, then imported into GraphPad Prism 6 software, and EC50 values were calculated.

Experiment [8] has as its target T2, human HER3 on cells. Nature of the experiment: flow cytometry on NCI-N87 cells. As to the method:
as §3

In experiment [9] the target is T2, human HER3 on cells. The experiment in a line: flow cytometry on NCI-H358 cells. As to the method: as §3
In experiment [10] the target is T1, monkey HER3 protein (extracellular …). The experiment in a line: ELISA, coated monkey HER3-His. As to the method: as §2

T4 sequence (Q62799 20-643): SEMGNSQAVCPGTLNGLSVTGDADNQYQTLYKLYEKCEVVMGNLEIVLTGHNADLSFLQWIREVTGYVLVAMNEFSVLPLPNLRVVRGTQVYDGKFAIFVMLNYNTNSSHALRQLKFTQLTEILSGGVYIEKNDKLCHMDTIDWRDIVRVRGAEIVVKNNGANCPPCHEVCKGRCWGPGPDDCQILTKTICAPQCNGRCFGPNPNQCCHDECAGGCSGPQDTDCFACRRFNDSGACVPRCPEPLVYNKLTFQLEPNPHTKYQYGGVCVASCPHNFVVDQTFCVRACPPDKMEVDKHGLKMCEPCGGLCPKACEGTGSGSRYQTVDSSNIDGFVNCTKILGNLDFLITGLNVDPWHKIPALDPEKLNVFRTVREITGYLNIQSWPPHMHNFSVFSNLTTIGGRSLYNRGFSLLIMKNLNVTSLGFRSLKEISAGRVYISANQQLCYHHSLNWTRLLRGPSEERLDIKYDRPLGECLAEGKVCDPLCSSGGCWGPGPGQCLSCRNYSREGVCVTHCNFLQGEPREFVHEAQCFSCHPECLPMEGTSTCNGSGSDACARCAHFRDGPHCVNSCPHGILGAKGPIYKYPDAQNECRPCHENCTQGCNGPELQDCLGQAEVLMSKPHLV

B1: 100H7D3-hIgG (anti-human HER3 fully human antibody) (antibody, V domains shown)
VH: EVQLVESGGGVVLPGRSLRLSCAASGFTFSRNAMHWVRQAPGKGLEWVAVIWHDGSNKYYGDSVKGRFTISRDNSKNTLYLQMDSLTAEDTAVYYCARDRGASDFRGQGTLVTVSS
VL: DIQMTQSPSTLSASVGDRVTITCRASQSINNWLAWYQQKPEKAPKLLIYKASSLESGVPSRFSGSGSGTEFTLTISSLQPDDFATYYCQQYNSYSLTFGGGTKVEIKR
notes: Human IgG1/kappa, expressed in CHO-S cells; also called 100H7D3-hIgG-Bio (biotin-labelled)
B1: the Kd (as a rule, the equilibrium constant for the complex coming apart) in experiment [1] turned out to be 5.44 nM; in experiment [6], 7.47 nM. Besides, the dissociation rate constant (koff) – broadly, the rate constant with which the complex falls apart – worked out at 0.000926 s⁻¹ in experiment [1] and 0.00226 s⁻¹ in [6]. The kon (commonly the rate constant with which the complex forms) was 170000 M⁻¹ s⁻¹ in [1] and 302000 M⁻¹ s⁻¹ in [6]. Moreover, the “IC50 (read off the curve)” value in experiment [2] is about 0.4 µg/mL. The EC50 – broadly, the concentration that produces a half-maximal response – in [3] turned out to be 0.00849 µg/mL; in [5], 0.00937 µg/mL; in [7], 0.203 µg/mL; in [8], 0.218 µg/mL; in experiment [9] it was 0.29 µg/mL; in experiment [10] it was 0.0131 µg/mL. Moreover, the “ADCC activity, EC50 (Jurkat-NFAT/luciferase-CD16a reporter with CHO-S-hHER3 target cells)” value in experiment [4] is 0.0257 µg/mL.
